Experimental data published in patent US20220009959A1.

Key:
[1] = biological target: high molecular weight HCPs (MW>150 kDa) of CHO-K1 IgG1 harvest (Chinese hamster (CHO-K1)); assay: flow-through, SEC; 10-30 CV load
[2] = biological target: high molecular weight HCPs (MW>150 kDa) of CHO-K1 IgG1 harvest (Chinese hamster (CHO-K1)); assay: flow-through, SEC; 1 min RT, 60 CV cut-off load
[3] = biological target: low molecular weight HCPs (10 kDa<MW<150 kDa) of CHO-K1 IgG1 harvest (Chinese hamster (CHO-K1)); assay: flow-through, SEC; 1 min RT, 60 CV cut-off load
[4] = biological target: CHO-K1 host cell proteins of mAb production clarified cell culture harvest (Chinese hamster (CHO-K1)); assay: static binding pH 6, 150 mM NaCl
[5] = biological target: monoclonal antibody product of the CHO-K1 production harvest; assay: static binding pH 6, 150 mM NaCl
[6] = biological target: CHO-K1 host cell proteins of mAb production clarified cell culture harvest (Chinese hamster (CHO-K1)); assay: static binding pH 7, 20 mM NaCl; HCP ELISA over Easy-Titer (reference: mAb m53)

| Substance | fold reduction in HMW species [1] [fold] | percent reduction in HMW % [2] [%] | percent reduction in LMW % [3] [%] | Kp (partition coefficient) [4] | Kp (partition coefficient) [5] | HCP targeted binding ratio (TBR; % HCP removed / % mAb removed) [6] |
| --- | --- | --- | --- | --- | --- | --- |
| 6HP/4MP-Toyopearl resin | 2 to 4 | 50 | 36 |  |  |  |
| 4MP-Toyopearl resin |  |  |  | 7.3 | 0.75 | 4.87 |
| 6HP-Toyopearl resin |  |  |  | 6.1 | 0.96 |  |
